Data: patent US20230287120A1 (ALLOGENE THERAPEUTICS, published 2023)

T1: Flag tagged recombinant DLL3 (Adipogen) (Homo sapiens (Human), UniProt Q9NYJ7 27-492)
T1 construct: Bought reagent; also called Flag-DLL3
T1 sequence: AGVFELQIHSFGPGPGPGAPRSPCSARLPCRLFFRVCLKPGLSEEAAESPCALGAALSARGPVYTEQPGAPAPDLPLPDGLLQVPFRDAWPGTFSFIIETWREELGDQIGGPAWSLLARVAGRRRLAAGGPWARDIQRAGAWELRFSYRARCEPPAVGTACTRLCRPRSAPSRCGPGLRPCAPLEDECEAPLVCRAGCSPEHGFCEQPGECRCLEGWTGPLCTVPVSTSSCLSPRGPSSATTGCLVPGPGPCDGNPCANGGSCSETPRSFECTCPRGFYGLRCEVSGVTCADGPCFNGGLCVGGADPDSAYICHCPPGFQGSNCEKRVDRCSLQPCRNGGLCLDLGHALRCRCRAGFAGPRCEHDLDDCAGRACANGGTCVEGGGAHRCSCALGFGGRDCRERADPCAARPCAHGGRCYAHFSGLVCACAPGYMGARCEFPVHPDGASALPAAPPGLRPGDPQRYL


What was measured:
[1] = molecular target: T1, Flag tagged recombinant DLL3 (Adipogen); test: flow cytometry, percent of T cells that recognise recombinant DLL3, Donor 772
Protocol: (§1) To determine the percentage of T cells that were successfully transduced with DLL3 CAR, T cells were first incubated with 1 ug/ml Flag tagged recombinant DLL3 (Adipogen) in PBS+1% BSA for 20 minutes at 4 C.

[2] = molecular target: T1, Flag tagged recombinant DLL3 (Adipogen); test: flow cytometry, percent of T cells that recognise recombinant DLL3, Donor 503
Protocol: as §1

Binder | Transduction efficiency [1] | Transduction efficiency [2]
4C6 (other, also called anti-DLL3 CAR with 4C6 scFv, on primary T cells) CAR: QVQLQESGPGLVKPSETLSLTCTVSGDSISSYYWSWIRQPPGKGLEWIGYMYYSGITNYNPSLKSRVNISLDTSKNQFSLKLGSVTAADTAVYYCARLSVAGFYFDYWGQGTLVTVSSGGGGSGGGGSGGGGSGGGGSEIVLTQSPGTLSLSPGERATLSCRASQSVTRSYLAWYQQKPGQAPRLLIYGASSRATDIPDRFSGSGSGTDFTLTINRLEPEDFAVYYCQQYGTSPLTFGGGTKVEIKTTTPAPRPPTPAPTIASQPLSLRPEACRPAAGGAVHTRGLDFACDIYIWAPLAGTCGVLLLSLVITKRGRKKLLYIFKQPFMRPVQTTQEEDGCSCRFPEEEEGGCELRVKFSRSADAPAYQQGQNQLYNELNLGRREEYDVLDKRRGRDPEMGGKPRRKNPQEGLYNELQKDKMAEAYSEIGMKGERRRGKGHDGLYQGLSTATKDTYDALHMQALPPR | 25.2% | 56.9%
4E6 (other, also called anti-DLL3 CAR with 4E6 scFv, on primary T cells) CAR: QVQLQESGPGLVKPSETLSLTCTVSSDSISSYYWSWIRQPPGKGLEWISYIYYSGISNYNPSLKSRVSISVDTSKNQFSLRLSSVTAADTAVYYCARISVAGFFFDNWGQGTLVTVSSGGGGSGGGGSGGGGSGGGGSEIMLTQSPDTLSLSPGERATLSCRASQSVSSSYLAWYQQKPGQAPRLLIYGASSRAAGVPDRFSGSGSGTDFTLTISRLAPEDFVVYYCQQYGISPLTFGGGTKVEIKTTTPAPRPPTPAPTIASQPLSLRPEACRPAAGGAVHTRGLDFACDIYIWAPLAGTCGVLLLSLVITKRGRKKLLYIFKQPFMRPVQTTQEEDGCSCRFPEEEEGGCELRVKFSRSADAPAYQQGQNQLYNELNLGRREEYDVLDKRRGRDPEMGGKPRRKNPQEGLYNELQKDKMAEAYSEIGMKGERRRGKGHDGLYQGLSTATKDTYDALHMQALPPR | 24.8% | 37.8%
3E10 (other, also called anti-DLL3 CAR with 3E10 scFv, on primary T cells) CAR: QVQLQESGPGLVKPSETLSLTCNVSDGSISSYYWTWIRQPPGKGLDWIGYIFYSGTTNYNPSLKSRVTISLDTSKNQFSLKLTSMTAADTAVYYCARISEKSFYFDYWGQGTLVTVSSGGGGSGGGGSGGGGSGGGGSQSVLTQPPSASGTPGQRVTISCSGSSSNIGSNYVYWYQQLPGTAPKLLIYSNNQRPSGVPDRFSGSKSGTSASLAISGLRSEDEADYYCAPWDDSLSGRVFGGGTKLTVLTTTPAPRPPTPAPTIASQPLSLRPEACRPAAGGAVHTRGLDFACDIYIWAPLAGTCGVLLLSLVITKRGRKKLLYIFKQPFMRPVQTTQEEDGCSCRFPEEEEGGCELRVKFSRSADAPAYQQGQNQLYNELNLGRREEYDVLDKRRGRDPEMGGKPRRKNPQEGLYNELQKDKMAEAYSEIGMKGERRRGKGHDGLYQGLSTATKDTYDALHMQALPPR | 0.43% | –
11F4 (other, also called anti-DLL3 CAR with 11F4 scFv, on primary T cells) CAR: QVHLQESGPGLVKPSETLSLTCTVSGGSISHYYWTWIRQPPGKGLEWIGYIYYSGITNFSPSLKSRVSISVDSSKNQFSLNLNSVTAADTAVYYCAGISLAGFYFDYWVQGTLVTVSSGGGGSGGGGSGGGGSGGGGSEIVLTQSPGTLSLSPGERATLSCRASQSVSRSYLAWYQQKPGQAPRLLIYGASSRATGVPDRFSGSGSGTDFTLTISRLEPEDFAVFYCQQYSISPLTFGGGTKVEIKTTTPAPRPPTPAPTIASQPLSLRPEACRPAAGGAVHTRGLDFACDIYIWAPLAGTCGVLLLSLVITKRGRKKLLYIFKQPFMRPVQTTQEEDGCSCRFPEEEEGGCELRVKFSRSADAPAYQQGQNQLYNELNLGRREEYDVLDKRRGRDPEMGGKPRRKNPQEGLYNELQKDKMAEAYSEIGMKGERRRGKGHDGLYQGLSTATKDTYDALHMQALPPR | 0.43% | –
3G6 - L2 (other, also called anti-DLL3 CAR with 3G6-L2 scFv, on primary T cells) CAR: QVPLVQSGAEVKKPGSSVKVSCKASGGTFSTYSISWVRQAPGQGLEWMGGIIPIFGTTNYAQKFQGRVTITADKSTSTAYMELSSLRSEDTAVYYCARDGEGSYYYYYGMDVWGQGTTVTVSSGGGGSGGGGSGGGGSGGGGSQSVLTQPPSASGTPGQRVTISCSGSSSNIGSNYVYWYQQLPGTAPKLLIYSNNQRPSGVPDRFSGSKSGTSASLAISGLRSEDEADYYCAAWDDSLSGWVFGGGTKLTVLTTTPAPRPPTPAPTIASQPLSLRPEACRPAAGGAVHTRGLDFACDIYIWAPLAGTCGVLLLSLVITKRGRKKLLYIFKQPFMRPVQTTQEEDGCSCRFPEEEEGGCELRVKFSRSADAPAYQQGQNQLYNELNLGRREEYDVLDKRRGRDPEMGGKPRRKNPQEGLYNELQKDKMAEAYSEIGMKGERRRGKGHDGLYQGLSTATKDTYDALHMQALPPR | 16.9% | 33.5%
3F9-L (other, also called anti-DLL3 CAR with 3F9-L scFv, on primary T cells) CAR: QVQLQQSGPGLVKPSQTLSLACAISGDSVSSNSAIWNWIRQSPSRGLEWLGGTYYRSMWYNDYAVSVKSRITINPDTSKNQLSLQLNSVTPEDTAVYYCSRGGIVGVPDAFDIWGQGTMVTVSSGGGGSGGGGSGGGGSGGGGSQSVLTQPPSASGTPGQRVTISCSGSSSNIGSNTANWYQQLPGTAPRLLIYRNNQRPSGVPDRFSGSKSGTSASLAISGLQSEDEADYYCAAWDDSLNGYVFGTGTKVTVLTTTPAPRPPTPAPTIASQPLSLRPEACRPAAGGAVHTRGLDFACDIYIWAPLAGTCGVLLLSLVITKRGRKKLLYIFKQPFMRPVQTTQEEDGCSCRFPEEEEGGCELRVKFSRSADAPAYQQGQNQLYNELNLGRREEYDVLDKRRGRDPEMGGKPRRKNPQEGLYNELQKDKMAEAYSEIGMKGERRRGKGHDGLYQGLSTATKDTYDALHMQALPPR | 13.8% | 19.5%
6F8 (other, also called anti-DLL3 CAR with 6F8 scFv, on primary T cells) CAR: QVQLVQSGAEVKKPGSSVKVSCKASGGTFTNYCISWVRQAPGQGLEWMGGIIPIFGTTNYAQTFQGRVTITADKSTSTAYMELSSLRSEDTAVYYCARDNGDRYYYDMDVWGQGTTVTVSSGGGGSGGGGSGGGGSGGGGSQSVLTQPPSVSAAPGQKVTISCSGSSSNIGNNYVSWYQQLPGTAPKLLIYDNNKRPSGIPDRFSGSKSGTSATLGITGLQTGDEADYYCGTWDSSLSAVVFGGGTKLTVLTTTPAPRPPTPAPTIASQPLSLRPEACRPAAGGAVHTRGLDFACDIYIWAPLAGTCGVLLLSLVITKRGRKKLLYIFKQPFMRPVQTTQEEDGCSCRFPEEEEGGCELRVKFSRSADAPAYQQGQNQLYNELNLGRREEYDVLDKRRGRDPEMGGKPRRKNPQEGLYNELQKDKMAEAYSEIGMKGERRRGKGHDGLYQGLSTATKDTYDALHMQALPPR | 26.7% | 59.4%

Continued, values first:

Transduction efficiency [1] | Transduction efficiency [2] | Binder
0.98% | – | 10E12 (other, also called anti-DLL3 CAR with 10E12 scFv, on primary T cells) CAR: QVQLQESGPGLVKPSETLSLTCTVSGVSISSYYWSWIRQPPGKGLEWIAYIYYSGNTNYSPSLKSRVTISVDTSKDQLSLKLSSVTAADTAVYYCTRGGSGTIDVFDIWGQGTMVAVSSGGGGSGGGGSGGGGSGGGGSQSVLTQPPSVSAAPGQKVTISCSGSSSNIGNNYVSWYQQLPGTAPKLLIYDNNKRPSGIPDRFSGSKSGTSATLGITGLQTGDEADYYCETWDSSLSAVVFGGGTKLTVLTTTPAPRPPTPAPTIASQPLSLRPEACRPAAGGAVHTRGLDFACDIYIWAPLAGTCGVLLLSLVITKRGRKKLLYIFKQPFMRPVQTTQEEDGCSCRFPEEEEGGCELRVKFSRSADAPAYQQGQNQLYNELNLGRREEYDVLDKRRGRDPEMGGKPRRKNPQEGLYNELQKDKMAEAYSEIGMKGERRRGKGHDGLYQGLSTATKDTYDALHMQALPPR
0.14% | – | 3C3 (other, also called anti-DLL3 CAR with 3C3 scFv, on primary T cells) CAR: QVQLVQSGAEVKRPGASVKVSCKASGYTFTSYYIHWVRQAPGQGLEWMGVIVPSGGSISYAQKFQGRVTMTRDTSTNIVYMELSSLRSEDTAVYYCARDRYYGDYYYGLDVWGQGTTVTVSSGGGGSGGGGSGGGGSGGGGSDIQMTQSPSSLSASVGDRVTITCRASQGINNFLAWFQQKPGKAPKSLIYAASSLQSGVPSKFSGSGSGTDFTLTIRSLQPEDFATYYCQHYNSYPITFGQGTRLEIKTTTPAPRPPTPAPTIASQPLSLRPEACRPAAGGAVHTRGLDFACDIYIWAPLAGTCGVLLLSLVITKRGRKKLLYIFKQPFMRPVQTTQEEDGCSCRFPEEEEGGCELRVKFSRSADAPAYQQGQNQLYNELNLGRREEYDVLDKRRGRDPEMGGKPRRKNPQEGLYNELQKDKMAEAYSEIGMKGERRRGKGHDGLYQGLSTATKDTYDALHMQALPPR
14.2% | 35% | 3G6 - L1 (other, also called anti-DLL3 CAR with 3G6-L1 scFv, on primary T cells) CAR: QVPLVQSGAEVKKPGSSVKVSCKASGGTFSTYSISWVRQAPGQGLEWMGGIIPIFGTTNYAQKFQGRVTITADKSTSTAYMELSSLRSEDTAVYYCARDGEGSYYYYYGMDVWGQGTTVTVSSGGGGSGGGGSGGGGSGGGGSQSVLTQPPSVSAAPGQKVTISCSGSSSNIGNNYVSWYQQLPGTAPKLLIYDNNKRPSGIPDRFFGSKFGTSATLGITGLQTGDEADYYCGTWDSSLSAVVFGGGTKLTVLTTTPAPRPPTPAPTIASQPLSLRPEACRPAAGGAVHTRGLDFACDIYIWAPLAGTCGVLLLSLVITKRGRKKLLYIFKQPFMRPVQTTQEEDGCSCRFPEEEEGGCELRVKFSRSADAPAYQQGQNQLYNELNLGRREEYDVLDKRRGRDPEMGGKPRRKNPQEGLYNELQKDKMAEAYSEIGMKGERRRGKGHDGLYQGLSTATKDTYDALHMQALPPR
– | 58.9% | 2404.8E11 (other, also called anti-DLL3 CAR with 2404.8E11 scFv, on primary T cells) CAR: QIQLQQSGPGLVKPSQTLSLTCAISGDSVSSNSAVWNWIRQSPSRGLEWLGRTYYRSKWYNDYAVSVKSRITIKPDTAKNQFSLQLNSVTPEDTAVYYFTRGGIVGAPDAFDIWGQGTMVTVSSGGGGSGGGGSGGGGSGGGGSQSVLTQPPSASGTPGQRVTISCSGSSSNIGSDPINWYQQVPGTAPKLLIYSNNQRPSGVPDRFSGSKSGTSASLAISGLQSEDEADYYCAAWDDSLNGYVFGTGTKVTVLTTTPAPRPPTPAPTIASQPLSLRPEACRPAAGGAVHTRGLDFACDIYIWAPLAGTCGVLLLSLVITKRGRKKLLYIFKQPFMRPVQTTQEEDGCSCRFPEEEEGGCELRVKFSRSADAPAYQQGQNQLYNELNLGRREEYDVLDKRRGRDPEMGGKPRRKNPQEGLYNELQKDKMAEAYSEIGMKGERRRGKGHDGLYQGLSTATKDTYDALHMQALPPR
